Results from patent US20040038855A1 (priority 1999, published 2004).
pKi: −log10 of the molar value. Values belong to the substance of their own block, whether it stands above or below them. Ends that are not written are not given here.

Key:
[1] = target: human MCH1 receptor (Homo sapiens, UniProt Q99705); assay: Binding of [125I]Phe13,Tyr19-MCH on MCH1-transfected Cos-7 cell membranes; set-up: expressed in transfected cells; host or cells: COS-7; conditions: 0.1 nM radioligand
Method: For binding assays, pellets of transfected cells are suspended in ice-cold buffer (20 mM Tris.HCl, 5 mM EDTA, pH 7.4) and homogenized by sonication for 7 sec. The cell lysates are centrifuged at 200×g for 5 min at 4° C. The supernatants are then centrifuged at 40,000×g for 20 min at 4° C. The resulting pellets are washed once in the homogenization buffer and suspended in binding buffer (see methods for radioligand binding). Protein concentrations are determined by the method of Bradford (1976) using bovine serum albumin as the standard. Binding assays are usually performed immediately, however it is possible to prepare membranes in batch and store frozen in liquid nitrogen for future use.
MCH1 binding experiments with membranes (20-40 μg membrane protein) from transfected cells are performed with 0.1 nM [^125I]Phe^13-Tyr^19-MCH (Custom labeled by NEN) using incubation buffer consisting of 50 mM Tris pH 7.4, 10MM MgCl2, 2 μg/ml aprotonin, 0.5 mM PMSF and 50 μg/ml bacitracin. Binding is performed at 25° C. for 1 hr. Incubations are terminated by rapid vacuum filtration over GF/C glass fiber filters, presoaked in 5% PEI using 50 mM Tris pH 7.4 containing 0.01% triton X-100 as wash buffer.
Specific [^125I]Phe^13-Tyr^19-MCH binding was about 70% of total binding at a radioligand concentration of 0.1 nM (FIG. 10).

[2] = test system: MCH binding sites of G4F-7 cells; conditions: cited from earlier work

human MCH1 receptor, sequence (Q99705 whole entry): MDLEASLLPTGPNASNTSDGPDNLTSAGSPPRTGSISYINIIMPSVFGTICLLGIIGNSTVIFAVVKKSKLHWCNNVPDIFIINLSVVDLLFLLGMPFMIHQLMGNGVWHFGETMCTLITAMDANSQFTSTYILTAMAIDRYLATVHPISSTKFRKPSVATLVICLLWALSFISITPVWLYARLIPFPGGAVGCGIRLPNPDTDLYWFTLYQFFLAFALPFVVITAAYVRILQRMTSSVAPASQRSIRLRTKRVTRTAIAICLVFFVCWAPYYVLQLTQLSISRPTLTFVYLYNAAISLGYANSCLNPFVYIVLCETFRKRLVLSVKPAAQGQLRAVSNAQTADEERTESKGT

specific binding as share of total binding [1]: about 70 % of total binding
specific binding ([1]; MCH1-transfected cells): about 80 fmol/mg membrane protein
Substance: [^125I]Phe^13-Tyr^19-MCH: radioiodinated MCH analogue, custom labeled by NEN, radioligand of the MCH1 binding experiments

Substance: rat ANF: rat ANF, weakly inhibited binding of the radioiodinated MCH analogue (SLRRSSCFGGRIDRIGAQSGLGCNSFRY; ends and bridges not checked; cysteine pairing not given here; UniProt P01161 123-150, looked up)
pKi ([2]; inhibition of binding of the radioiodinated ligand): 6.94

Substance: α-MSH
inhibition of binding of the radioiodinated ligand [2]: not inhibited
